Target: hRTL (Chondrilla australiensis tetramer lectin) (Chondrilla australiensis)
Assay: SEC + other: SDS-PAGE; gel permeation chromatography on Shodex KW 402.5-4F (HPLC, 0.33 mL/min) in 50 mM sodium bicarbonate in saline, 60 kDa; SDS-PAGE under non-reducing conditions after 3 min or 20 min heating at 80 °C, 66 kDa and 18 kDa; subunit mass 15,521.11 Da by MALDI-TOF-MS

Question: With “hRTL (Chondrilla australiensis tetramer lectin) (natural protein)” as the substance, how does the stoichiometry N read?
Answer: The stoichiometry N was 4.
